Measurements published in paper PMC2917807 (Journal of molecular biology, 2010).

T1: LexA-SoxS bait fusion protein (pGILDA-SoxS), wild type SoxS (Escherichia coli, UniProt P0A9E2 1-107)
T1 sequence (looked up): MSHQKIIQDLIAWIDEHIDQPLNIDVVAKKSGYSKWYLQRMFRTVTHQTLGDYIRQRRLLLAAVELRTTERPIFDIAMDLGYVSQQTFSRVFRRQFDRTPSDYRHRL

B1: B42AD-σ^70 R4 prey fusion protein (pB42AD-σ^70 R4), wild type region 4 of σ^70 (domain or fragment, Escherichia coli, UniProt P00579 530-613, looked up)
chain: LPLDSATTESLRAATHDVLAGLTAREAKVLRMRFGIDMNTDYTLEEVGKQFDVTRERIRQIEAKALRKLRHPSRSEVLRSFLDD

How the values were obtained:
[1] = molecular target: LexA-SoxS bait fusion protein (pGILDA-SoxS), wild type SoxS (Escherichia coli) (UniProt P0A9E2); test: two-hybrid
[2] = molecular target: T1, LexA-SoxS bait fusion protein …; test: two-hybrid

Molecule | induction ratio of reporter β-galactosidase [1] | induction ratio of reporter β-galactosidase [2]
B42AD-αCTD prey fusion protein (pB42AD-αCTD) (domain or fragment) | 25 | 
B1 |  | 14
